# According to the DeepSol protein solubility set:
# Assay: soluble on expression in E. coli; label from the status in PepcDB or PDB records
row,Sequence,soluble on expression in E. coli
1,MGSDKIHHHHHHMKNYALLNGAYDNKTMYDFKPVRADNTYLYDSQNRKYLDLRSGLWNTSLGYIDSLYQRVSKRFDQVLNKKLPYLDIHSFQHDIYDEVAQKVLELTGHAFKRVLYTNSGSENTELALKIADYTNKKGENNRILAFKDSYHGTFFGGVSVSGIDQEINSSFYPKYGEVTFIDYPKSAEQEKNVLDYIANVASFYDVMMIEPILASAGIYFASTDFFNALLKLLRKNQVLIVFDEVATGFFKTGKPFYFQQLSEKPDILCLSKAINNGITSFGCVCVNEEVDAKLQKNPKTMEHFSTQNGNLLGLESANIVLDYYLKSRDVIKGKVKDISDSISNVLDSQNVFYRNQGIMTAIRTESNQSLQLMKSLEKLGILTYLYVNEEEEGLSIMPPININLNVLEKALKLISKKIESQNSF,not soluble
2,MGSDKIHHHHHHMKNYKIVAIGDNVCDKYLSRGKMYPGGQCINTCVYGKMNGAETAYIGKYGNDEVAECVQNTLKEIGIDDSHCRHYEGENGFALVTLKNADRVFLGSNKGGIAKEHSYNFDENDFEYIKKFDLIYTNLNSYIEDNLKELHATGVPIAYDFSMRWTDEYLLKVCPYIDVAILSCAHLTAEEREKEMKKVQNYGVKIVLGTIGEDGSYVLYNGDFLYTSAIMAANIIDTMGAGDSYFSTFLCSLLQTSETGKLVEGTKESMKIRLESAMKSGAIFAANVCGMEGAFGYGVPIQGKTEI,not soluble
3,MGSDKIHHHHHHMKPWQGISEFAAVAEQQSFTAAARQLRLSVAQVSRNIAALEHRLQMQLLYRSTRSVSLTEEGKLYLPHCQHLVASLRDADQAIQQRTQQPQGLIRITAPVYYGERFIAPLLNDFLHIYPECRLDFQLTNEQVDLIEGSYDVAIRLGQLGNPRLRARKLGSRRHFVVGSPAYFEEFGRPQDINALDAHRCFTGTVRQWRFQVEGKLETVRPESYLHCNNGLALRDAAMKGLGLAMLPDYYVTDSLANGQLEEVLADYRQPDDGIWALYPENRQVIPKVRVLLDYLSGNLSGNLSGKFNTGEIEN,not soluble
4,MGSDKIHHHHHHMKQLLAYCLSIILCVSFTGCMENYLDLYPEDKITSASFPENESDIKLLLNGVYAQLREKEVYNQGLFGFGITDGATPNAFNWGTDEVFNKLGAGRLSSSDGGVVTYRWKRCYEIISRANYLLACMDLVDLSEEAKAKYSGETHFLRGLAYSVLAETYGGVPIILTDISTEEARSLKRASLEETWQQALDDYEVAITNLGVDAPEPGRATKGAALGMKMRAYLYQGKYKEVLSCVEQIDALKKYGLFHSYEGLFDPANENNKEVLFDIQYIEGENSQGSYIDQYCGTGTGSWTRGSRYVPTDDLVAAYETIDGSPVDPENPYENRDPRLGFTAVLPGSYFLGYRFPNYLYPGGAFNHAGNRLKHLSTRKYRIQDESKLPPSGQSYINDIILRYADVLLSKAEAIIETNGNVADAIAILNRIRTERDDVKISLLPTSMSREEAREKVRHERRIELALEGRYWSDVKRWKIGKELYPMIIKDHEGSVIETKFPNGYLEYYDLLPIPDSERSLNPNLDQNPGW,not soluble
5,MGSDKIHHHHHHMKRENLHQPFEISFSEFDESMLKEHDHTFFELVYILSGTGIQWINNNKFSYHGGHLFMITPGDSHSFEIHSTTKFIDIKFNDIYIHSAVFGTENIKRLEFILQHANHQPGCILRNRTDKLLVKPMIEAIIREYVNRNLYSKEIITQLINTIIIVVARNIAMFLPEQVNECSEEKSLGILQYIQTYIYQSEKIKTKAISQHFGISENYLGRYFKKHTNETMQQYILNYKLKLVENRLLHSEMRISEIVAELGFTDESHLNKLFKKYRGCSPTNFRKNNAV,not soluble
6,MGSDKIHHHHHHMKRFNIIITLSATLGLFSCELDKMPMDQVSDAVFWQKPADFELAANDFYFGLQEVSQYIDMNSDIAFGSGTNDVSDGSYLAPVNSDDWDNPWKFVQSTSYLLKKAEESGLSDEEIGRWKAEAHFFRAYNYWKLVKTYGGVPKIDIPLNTSSEELYTPRSSQQEIIDFIIEDLDKAIPLLPKQSGLTAEELGRTTQGAALALKARAALFEGTWQKYHGMADAGKYLDLAIQAAQAIVDSKEYELYREKGELSYKYLHILEGDDSKEVLLARRYYKLRATHNWTRELLLGAMVPTKNLADVYLCTDGLPIDKSKLFKGFQTQTSEFENRDSRMAQTFVVPGSEIFSEGGGWATVEPGFIGNNSTRTGYMIRKFMDETLDAVQFIGEYDFKEFRYGEVLLILAEALYEKNGQITDEQLDLTINDLRNRANMPRLTNAFVATNGLNMQEEIRRERTVELAFEGYRRDDLRRWGTAETVLPLAIRGVKFVGTEYQQKFPELVIGQDIQVDSEGFIIAQPASARKFQTPKHWLSPIPLQQVQLSKGTLEQNPGW,not soluble
7,MGSDKIHHHHHHMKRIVCPKDYYNEQGLLLSAKGTKITLSQFLRLQRKYDFLSETEANERTLASYEKIKQKICRKDERYKRADDQLLDQASALLVNIVFESKRKPWYMYLTALGNHINWLYTHSIDVALLSLMMAIESGVSQRSLWDLGVGGILHDVGKLLIPKKIIQKRTELSDIEKDILRQHCELGVECTTDCAFPILSQDIIAQHHERLDGSGYPNQLQEGQINEYVKIVMIADAFDTITAGRPYRKTVEVEEALAYLEDQEGAFSRMYLETLKNILVRP,not soluble
8,MGSDKIHHHHHHMKRMKGIVYGGLLSVVFVMSGCSGSQKEGRDSKEIPVEIVKVAKTVPADTRNYVGTVEEVVSSSISFQVMGNVERVLVGEGQKVREGQLLAVLDKATLENAYNASAASLRQAEDAYARMRTLHENKSLPDMKWVEVESKLEQARSMERISRKNLEDRNLYAPFGGVIGKRMVEAGENVQPGQPVFSLLRIETVNVKIAVPENEVATLGDQAAMIKVAALGGQCFEGKVTEKGIVANPISHTYEAKIRLENPSGALLPGMVCDVRLSGEESVPAITLPNNAVLIANDGGRFVWKVVDGKAKATPVRTGDLTEQGLFILEGLNEGDIVVIGGYQKISEGMRVRAL,not soluble
9,MGSDKIHHHHHHMKRNESKYKQVVNHVIDGINNGSYKKGDWILSINEFRKNYNLSRDTVFAGLSELKSKGIIDSTPGVGYYIATTRIAQKLNIFLLFNEFNEFKEDLYNSFISSIRKTANVDLYFHNYNRKVFETLINEANYKYTTYILMPGKFTNIAPLLESLSGRVFLLDHFHPELAGKYSSVAQNFEKDTYEALVYGLPHLKKYDHIIMVQKEEKEPIERYNGLCAFCEEYHFTHEYTDSVRNREIRQGETFMVVNDRDLVDLLKQAQLQNFAPGKDFGIISYNDTPLKEILAGGITTLSTDFKQMGQTMASLITQKEIKTIENPWKLDIRNSL,not soluble
10,MGSDKIHHHHHHMKRVKEQIKYLALLAICLLSGCSDFLDSYNPSAVTDDFYNTKEGQQKLLTDINARYRNVFNTGELQYYGTDIYMAISEEPAERMFNGYDKTFNSTAPIVGDYWKVLYKIVQESNILLNRCTPDIAGSDYTSLTAQARFFRAMAYYYLVETFGPVPLLTEENTSVIQQAERTGEQAIYTFIITELNDIKDKLDMTTISAGKVTNAAVIHFLGKMYLTRAYKSFAETDDFSNAATTFDLLVENPASGYALQENYAALFDENNQANSEVIWAIQYGLDKNYRGDGNPQQAQFGFNIVALEPDLFIKNQNDYSSVSRKYWVNPKAHELYTDPEADTRYDATFKREYYINNPDNADYGKLGIYFPRWNDKSGMSNNAKRFYPFKQDDEYVWYPQSTALPVLETASDRMPMVRKFSDTKIQWGEGGSREDVIFRLGDTYLLCAEAYLGAGNKKLALERINSIRKRAAKDATAYEAMKLTDLDINVIMDERARELMGEHDRWFDLKRTQTLLTRVPAYNPFVVKYDNLNKNHLVRPIPQDERNKVDGLSQNEGY,not soluble
11,MGSDKIHHHHHHMKSIEELYKRALELKNKGMSDKEISTELHLSVNTVTWLLSKEFLKEGAVQDVKIGWRSVGVFGSRIISIAEIMSDIIREEMNKNSFEVDSILGIAINGIPYATLVSYLMDKELIVYRPHPARKEGVFSSNFASVEGKRVVIIDDVASTGETMRRTITDVTKEGGKPVLCVLLASKMSVNDLNGVPVRSLIRTQVIGGS,not soluble
12,MGSDKIHHHHHHMKSNTTMSKTERLFHLLQILRRYRYPLSGQFLANELGVSTRTIYRDIAALQAQGADIEGEPGLGYVLKPGFMLPPLMFNEEEIEALVLGSRWVAKKTDTHLQQAAHNALAKIASVLPADLRQQLELSSLLIGPGEVISGEDESLALVRKAIRKELKLFIQYHDLKGNVSTRTIWPIGLGYFDQVRVLIAWCELKKDFRHFRADRIVDVENLGVCYAKRRSVLLHDWRKQNNIPG,not soluble
